# Patent US20240010697A1 (CYTIMM THERAPEUTICS, published 2024)
# Where a chain is given by its changes, count along the chain named. In names and notes the source's numbering stands.
# T1: IL-2Rα in a human Fc fusion protein format (ACROBiosystems) (human, UniProt P01589 22-213, limits assumed)
# T1 construct: Bought reagent; also called CD25; not shown: human Fc (captured by anti-human IgG Fc)
# T1 sequence (looked up): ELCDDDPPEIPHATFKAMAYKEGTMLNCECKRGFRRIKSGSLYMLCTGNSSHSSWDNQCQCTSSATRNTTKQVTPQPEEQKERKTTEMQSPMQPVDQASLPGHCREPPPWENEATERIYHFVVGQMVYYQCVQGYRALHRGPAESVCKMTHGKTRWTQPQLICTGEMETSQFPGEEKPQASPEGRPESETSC
# T2: IL-2Rβγ-human Fc fusion protein construct (ACRO Biosystems) (human, UniProt P14784 27-239; P31785 23-262, limits assumed)
# T2 construct: not shown: human Fc
# T2 sequence (looked up) 1: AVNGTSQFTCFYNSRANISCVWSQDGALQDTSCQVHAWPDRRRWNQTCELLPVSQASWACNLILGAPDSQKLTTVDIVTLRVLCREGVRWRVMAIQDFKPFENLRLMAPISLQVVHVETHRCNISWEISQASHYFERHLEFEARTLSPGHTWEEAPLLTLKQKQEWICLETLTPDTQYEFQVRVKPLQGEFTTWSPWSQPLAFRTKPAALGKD
# T2 sequence (looked up) 2: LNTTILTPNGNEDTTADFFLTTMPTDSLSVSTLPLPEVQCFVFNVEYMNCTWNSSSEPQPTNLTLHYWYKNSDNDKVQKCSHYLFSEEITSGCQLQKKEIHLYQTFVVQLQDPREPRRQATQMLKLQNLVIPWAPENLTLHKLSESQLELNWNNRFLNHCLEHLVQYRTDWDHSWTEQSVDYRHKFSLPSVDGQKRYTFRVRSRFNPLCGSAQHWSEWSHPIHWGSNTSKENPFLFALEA
# T3: IL2R β
# T3 construct: also called IL-2Rβ in a human Fc fusion protein format (ACROBiosystems); CD122; not shown: The human IgG Fc carrier and any linker of the ACROBiosystems fusion
# T3 chain: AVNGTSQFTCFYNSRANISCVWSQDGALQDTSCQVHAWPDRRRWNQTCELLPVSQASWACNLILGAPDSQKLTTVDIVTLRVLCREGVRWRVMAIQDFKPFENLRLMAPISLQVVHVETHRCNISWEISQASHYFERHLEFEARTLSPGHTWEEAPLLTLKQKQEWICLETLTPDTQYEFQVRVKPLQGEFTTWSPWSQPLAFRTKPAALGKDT
# B1: ACT5210, IL-2 mutein Y31C + L18M + L19S (ligand)
# chain: APTSSSTKKTQLQLEHLMSDLQMILNGINNCKNPKLTRMLTFKFYMPKKATELKHLQCLEEELKPLEEVLNLAQSKNFHLRPRDLISNINVIVLELKGSETTFMCEYADETATIVEFLNRWITFSQSIISTLT
# notes: Not PEGylated; rhIL-2 (C125S) background; also called His-conjugated IL-2 mutein (ACT5210); not shown: His-Tag
# B2: ACT522S1, IL-2 mutein Y31C + N30S (PEG20K) (ligand)
# chain: B1 chain with M18L, S19L, N30S
# modifications: maleimide-PEG 20K on Cys 31
# notes: rhIL-2 (C125S) background; also called Y31C - PEG20 + N30S; not shown: His-Tag
# B3: ACT5211, IL-2 mutein Y31C + L18M + L19S (PEG20K) (ligand)
# chain: B1 chain
# modifications: maleimide-PEG 20K on Cys 31
# notes: rhIL-2 (C125S) background; also called Y31C - PEG20 + L18M + L19S; Y31C-PEG20+L18ML19S; not shown: His-Tag
# B4: ACT5231, IL-2 mutein Y31C + V69A + Q74P (PEG20K) (ligand)
# chain: B1 chain with M18L, S19L, V69A, Q74P
# modifications: maleimide-PEG 20K on Cys 31
# notes: rhIL-2 (C125S) background; also called Y31C - PEG20 + V69A + Q74P; not shown: His-Tag
# B5: ACT5261, IL-2 mutein Y31C + L18M + L19S + V69A + Q74P (PEG20K) (ligand)
# chain: B1 chain with V69A, Q74P
# modifications: maleimide-PEG 20K on Cys 31
# notes: rhIL-2 (C125S) background; also called Y31C - PEG20 + L18M + L19S + V69A + Q74P; not shown: His-Tag
# B6: ACT5271, IL-2 mutein Y31C + V69A + Q74P + N30S (PEG20K) (ligand)
# chain: B1 chain with M18L, S19L, N30S, V69A, Q74P
# modifications: maleimide-PEG 20K on Cys 31
# notes: rhIL-2 (C125S) background; also called Y31C - PEG20 + V69A + Q74P + N30S; not shown: His-Tag
# B7: ACT5281, IL-2 mutein Y31C + V69A + Q74P + N88R (PEG20K) (ligand)
# chain: B1 chain with M18L, S19L, V69A, Q74P, N88R
# modifications: maleimide-PEG 20K on Cys 31
# notes: rhIL-2 (C125S) background; also called Y31C - PEG20 + V69A + Q74P + N88R; not shown: His-Tag
# B8: ACT5291, IL-2 mutein Y31C + V69A + Q74P + V91K (PEG20K) (ligand)
# chain: B1 chain with M18L, S19L, V69A, Q74P, V91K
# modifications: maleimide-PEG 20K on Cys 31
# notes: rhIL-2 (C125S) background; also called Y31C - PEG20 + V69A + Q74P + V91K; not shown: His-Tag
# B9: IL-2 mutein Y31C - PEG20 + N30A (ligand)
# chain: B1 chain with M18L, S19L, N30A
# modifications: maleimide-PEG 20K on Cys 31
# notes: not shown: His-Tag
# B10: IL-2 mutein Y31C - PEG20 + N30G (ligand)
# chain: B1 chain with M18L, S19L, N30G
# modifications: maleimide-PEG 20K on Cys 31
# notes: not shown: His-Tag
# B11: IL-2 mutein Y31C - PEG20 + V69A + Q74P + I128T (ligand)
# chain: B1 chain with M18L, S19L, V69A, Q74P, I128T
# modifications: maleimide-PEG 20K on Cys 31
# notes: not shown: His-Tag
# Key:
# IL2R αβγ = target: T4, IL2R αβγ; experiment: biosensor kinetics, receptor as ligand on the sensor, IL-2 protein as sample, 1:1 Binding model (legend: Octet QKe; table heads give RU)
# T4 construct: Cell-free IL-2Rαβγ on a biosensor; not the cell-borne receptors m18 and m19; also called IL-2Rαβγ (ligand on the sensor)
# [1] = target: T1, IL-2Rα in a human Fc fusion protein …; experiment: as above
# [2] = target: T2, IL-2Rβγ-human Fc fusion protein …; experiment: as above
# [3] = target: T1, IL-2Rα in a human Fc fusion protein …; experiment: ELISA; EC50 on IL-2Rα over EC50 on IL-2Rβγ (reference)
# Experimental: (§1) IL-2Rα and IL-2R βγ-human Fc fusion protein constructs (ACRO Biosystems) were each expressed and immobilized by anti-Human IgG Fc (abeam), which were then captured on the surface of wells of a microplate. […] Binding was detected using anti-His or anti-PEG antibody conjugated to horse radish peroxidase (HRP) (Genscript), which was incubated with substrate. The quantification of binding was measured with an absorbance-based microplate reader. Data were analyzed by Graphpas prism9 Software.
# [4] = target: T1, IL-2Rα in a human Fc fusion protein …; experiment: ELISA, receptor-Fc captured by anti-human IgG Fc, anti-His-HRP detection
# Experimental: as §1
# [5] = target: T2, IL-2Rβγ-human Fc fusion protein …; experiment: as above
# Experimental: as §1
# [6] = target: T1, IL-2Rα in a human Fc fusion protein …; experiment: BLI (Octet QKe), IL-2Rα-Fc captured on AHC sensors, 1:1 fit
# Excerpt: (§2) IL-2Rα or IL-2Rβ in a human Fc fusion protein format (ACROBiosystems) were captured on anti-human IgG Fc capture (AHC) sensors. […] Dissociation was detected following transfer of sensors into wells containing buffer alone. Data were collected and analyzed by the Octet User Software. For analysis of the kinetics constants, a 1:1 curve fitting model was used.
# IL2R β = target: T3, IL2R β; experiment: biosensor sensorgrams, receptor on the sensor, IL-2 protein in solution (legend: Octet QKe); axes without units, concentrations not given
# Excerpt: as §2
# [7] = target: T2, IL-2Rβγ-human Fc fusion protein …; experiment: ELISA, receptor-Fc captured by anti-human IgG Fc on the plate, detection with anti-His or anti-PEG antibody-HRP; unit from the axis (Table 4 of the text prints 21.7)
# Experimental: as §1
# [8] = target: T1, IL-2Rα in a human Fc fusion protein …; experiment: ELISA; EC50 of rhIL2 (reference) over EC50 of ACT5211 on IL-2Rα
# Experimental: as §1
# [9] = target: T1, IL-2Rα in a human Fc fusion protein …; experiment: ELISA, receptor-Fc captured by anti-human IgG Fc on the plate, detection with anti-His or anti-PEG antibody-HRP; unit from the axis (Table 4 of the text prints 5.1)
# Experimental: as §1
# [10] = target: T2, IL-2Rβγ-human Fc fusion protein …; experiment: ELISA; EC50 of rhIL2 (reference) over EC50 of ACT5211 on IL-2Rβγ
# Experimental: as §1
# [11] = target: T1, IL-2Rα in a human Fc fusion protein …; experiment: ELISA; α/βγ EC50 ratio of rhIL2 (reference) over that of ACT5211
# Experimental: as §1
# [12] = target: T1, IL-2Rα in a human Fc fusion protein …; experiment: ELISA, receptor-Fc captured by anti-human IgG Fc, anti-His or anti-PEG HRP detection
# Experimental: as §1
# [13] = target: T2, IL-2Rβγ-human Fc fusion protein …; experiment: as above
# Experimental: as §1
# [14] = target: T1, IL-2Rα in a human Fc fusion protein …; experiment: BLI (Octet QKe), IL-2Rα-Fc captured on AHC sensors, 1:1 fit; row printed a second time
# Excerpt: as §2
binder,measurement,setting,value
B1,Kd,IL2R αβγ,0.0113 nM
same,koff,IL2R αβγ,0.000281 s⁻¹
same,kon,IL2R αβγ,2.48e+07 M⁻¹ s⁻¹
same,Kd,[1],28.4 nM
same,koff,[1],0.164 s⁻¹
same,kon,[1],5.75e+06 M⁻¹ s⁻¹
same,Kd,[2],1.04 nM
same,koff,[2],0.000837 s⁻¹
same,kon,[2],807000 M⁻¹ s⁻¹
same,Ratio (α/βγ) of EC50,[3],0.06
same,EC50,[4],2.5 ng/mL
same,EC50,[5],39.6 ng/mL
B2,Kd,[6],47.3 nM
same,koff,[6],0.0302 s⁻¹
same,kon,[6],639000 M⁻¹ s⁻¹
B3,binding result,IL2R β,no binding (tested: not printed)
same,Kd,[6],91.5 nM
same,koff,[6],0.0388 s⁻¹
same,kon,[6],424000 M⁻¹ s⁻¹
same,EC50,[7],2.03 ng/mL
same,EC50 ratio rhIL2/ACT5211,[8],6.8
same,EC50,[9],5.01 ng/mL
same,EC50 ratio rhIL2/ACT5211,[10],0.1
same,Kd,IL2R αβγ,0.289 nM
same,koff,IL2R αβγ,0.000761 s⁻¹
same,kon,IL2R αβγ,2.63e+06 M⁻¹ s⁻¹
same,Kd,[1],250 nM
same,koff,[1],0.139 s⁻¹
same,kon,[1],555000 M⁻¹ s⁻¹
same,Kd,[2],15.1 nM
same,koff,[2],0.00147 s⁻¹
same,kon,[2],97200 M⁻¹ s⁻¹
same,Ratio (α/βγ) of EC50,[3],0.3
same,"ratio of the (α/βγ) EC50 ratios, rhIL2/ACT5211",[11],67.7
same,EC50,[12],5.1 ng/mL
same,EC50,[13],21.7 ng/mL
B4,Kd,[6],9.09 nM
same,koff,[6],0.00431 s⁻¹
same,kon,[6],474000 M⁻¹ s⁻¹
B5,Kd,[6],7.38 nM
same,koff,[6],0.0043 s⁻¹
same,kon,[6],581000 M⁻¹ s⁻¹
B6,Kd,[6],9.14 nM
same,koff,[6],0.0029 s⁻¹
same,kon,[6],318000 M⁻¹ s⁻¹
B7,Kd,[6],10.6 nM
same,koff,[6],0.0037 s⁻¹
same,kon,[6],345000 M⁻¹ s⁻¹
B8,Kd,[6],9.07 nM
same,koff,[6],0.0032 s⁻¹
same,kon,[6],355000 M⁻¹ s⁻¹
B9,Kd,[6],37.3 nM
same,koff,[6],0.0194 s⁻¹
same,kon,[6],520000 M⁻¹ s⁻¹
B10,Kd,[14],61 nM
same,koff,[14],0.0232 s⁻¹
same,kon,[14],379000 M⁻¹ s⁻¹
same,Kd,[6],61 nM
same,koff,[6],0.0232 s⁻¹
same,kon,[6],379000 M⁻¹ s⁻¹
B11,Kd,[6],8.86 nM
same,koff,[6],0.0035 s⁻¹
same,kon,[6],393000 M⁻¹ s⁻¹
